Data on nine molecules can be found in patent US20140134183A1 (CELL MEDICA SWITZERLAND, published 2014).

The target of the experiment is T1, recombinant human IL-1 beta (human, UniProt P01584 117-269).
T1 construct: Bought protein; also called rhIL-1 beta; rhIL1-beta
The experiment can be described thus: ELISA, cleared E. coli lysate on coated rhIL-1 beta. Here is the method: The resulting scFv mutants are expressed in 96-well format in 1 ml cultures in E. coli BL21 (DE3) (Novagen, USA, cat. no. 69450-3). […] Cells were lysed in lysis buffer (1 mM EDTA, 0.1 mg/ml lysozyme, PBS pH 7.2) in a 96-well format by freezing and subsequent thawing. Derived crude extracts were cleared by centrifugation. Supernatants were added to wells of a microtiterplate coated with 50 ng/ml of rhIL-1 beta (Peprotech) per well. After washing, bound scFvs are detected by ProteinL-HRP and binding to rhIL-1 beta quantified by BM Blue POD Substrate (Roche Applied Science).

Positions count from the first letter of the chain named.

B1: DLX2677 (scFv)
scFv: EIVMTQSPSTLSASVGDRVTITCQASQSIGNWLAWYQQKPGKAPKLLIYQASNLASGVPSRFSGSGSGTDFTLTISSLQPDDFATYYCQNAGGATTIAFGQGTKLTVLGGGGGSGGGGSGGGGSGGGGSEVQLVESGGGNVQPGGSLRLSCTASGFSLSNSAMAWVRQAPGKGLEWVGIIYDSASTYYASWAKGRFTISRDNSKNTVYLQMNSLRAEDTATYYCARERAIFSGDFALWGQGTLVTVSS
notes: tested as cleared E. coli lysate; also called DLX2528_2531
In the case of B1, the binding result is given as “binds”.

B2: DLX2676 (scFv)
scFv: B1 scFv with N160D, S161A, Y187F, V207L, A229N, F235M, L243T
notes: tested as cleared E. coli lysate; also called DLX2528_2530
In the case of B2, the binding result is reported as “binds”.

B3: DLX2685 (scFv)
scFv: B1 scFv with G30S, N31S, A34S, Q50K, N53T, D70E, A94G, T95V, T96S
notes: tested as cleared E. coli lysate; also called DLX2543_2531
Consider B3, for which the binding result is recorded as “binds”.

B4: DLX2679 (scFv)
scFv: B1 scFv with N140L, A153V, N160S, S161Y, A164S, R200K, N202T, T221V, A236D, L237Y
notes: tested as cleared E. coli lysate; also called DLX2528_2585
Regarding B4, the binding result is listed as “binds”.

B5: DLX2695 (scFv)
scFv: ADIVMTQSPSTLSASVGDRVTITCQASQSISSYLSWYQQKPGKAPKLLIYRASTLASGVPSRFSGSGSGAEFTLTISSLQPDDFATYYCQNTGGGINIAFGQGTKLEIKRGGGGSGGGGSGGGGSGGGGSEVQLVESGGGLVQPGGSLRLSCTVSGFSLSSYAMSWVRQAPGKGLEWVGIIYDSASTYYASWAKGRFTISKDTSKNTVYLQMNSLRAEDTAVYYCARERAIFSGDFDYWGQGTLVTVSS
notes: tested as cleared E. coli lysate; also called DLX2547_2585
Regarding B5, the binding result is reported as “binds”.

B6: DLX2691 (scFv)
scFv: B5 scFv with R51K, A70T, E71D, D82E, T92A, L106V
notes: tested as cleared E. coli lysate; also called DLX2544_2585
With B6, the binding result is “binds”.

B7: DLX2694 (scFv)
scFv: B5 scFv with V178I, V208L, Y224F, A230Q, F236M, Y238G, L244T
notes: tested as cleared E. coli lysate; also called DLX2547_2548
On to B7, for which the binding result is reported as “binds”.

B8: DLX2678 (scFv)
scFv: EIVMTQSPSTLSASVGDRVTITCQASQSIGNWLAWYQQKPGKAPKLLIYQASNLASGVPSRFSGSGSGTDFTLTISSLQPDDFATYYCQNAGGATTIAFGQGTKLTVLGGGGGSGGGGSGGGGSGGGGSEVQLVESGGGLVQPGGSLRLSCTVSGFSLSSYAMSWVRQAPGKGLEWIGIIYDSASTYYASWAKGRFTISKDTSKNTLYLQMNSLRAEDTAVYFCARERQIFSGDMDGWGQGTTVTVSS
notes: tested as cleared E. coli lysate; also called DLX2528_2548
Turning to B8, the binding result is “binds”.

B9: DLX2680 (scFv)
scFv: EIVMTQSPSTLSASVGDRVIITCRASQSIGNWLSWYQQKPGKAPKLLIYRASNLASGVPSRFSGSGSGAEFTLTISSLQPEDFATYYCQNTGGGINIAFGQGTKLTVLGGGGGSGGGGSGGGGSGGGGSEVQLVESGGGNVQPGGSLRLSCTASGFSLSDAAMAWVRQAPGKGLEWVGIIYDSASTFYASWAKGRFTISRDNSKNTLYLQMNSLRAEDTATYYCARERNIFSGDMALWGQGTTVTVSS
notes: tested as cleared E. coli lysate; also called DLX2529_2530
For the molecule B9, the binding result is listed as “binds”.
